The source of these data is patent US20190169311A1.

For test [1], the target named is TFECDHis (human) (UniProt P13726). The test can be described thus: cross-competition ELISA; competitor: coated 111. (In general: ELISA stands for enzyme-linked immunosorbent assay.)
Test [2] shares this target. The test can be described thus: cross-competition ELISA; competitor: coated 11.
Test [3] has the same target. Put plainly: cross-competition ELISA; competitor: coated 087-Lg6.
Test [4] shares this target. The test can be described thus: ELISA, coated TFECDHis; mean of 3 experiments.
The target is the same in test [5]. The test can be described thus: cross-competition ELISA; competitor: coated 114.
The target is the same in test [6]. The test can be described thus: cross-competition ELISA; competitor: coated 092-A09.
Test [7] has the same target. Put plainly: cross-competition ELISA; competitor: coated 44.
Test [8] shares this target. The test can be described thus: cross-competition ELISA; competitor: coated 101.
For test [9] the target is unchanged. Put plainly: SPR (BIAcore 3000), antibody immobilized, TFECDHis as analyte.

As to HuMab-TF-011 (antibody), the competition value (unit not given) with TFECDHis (human) [1] was determined as 175; with TFECDHis (human) [2], 20; with TFECDHis (human) [3], 929; with TFECDHis (human) [5], 19; with TFECDHis (human) [6] it was 21; with TFECDHis (human) [7] it was 143. In the test with TFECDHis (human) [8], the competition value (unit not given) was 23. In the test with TFECDHis (human) [4], the concentration giving a half-maximal response (EC50) is 0.16 nM. The same substance came in with a Kd with TFECDHis (human) [9] of 3.15 nM.

In general, EC50 refers to the concentration at which the effect is half-maximal. A word on the Kd: it is the free concentration of one partner at which half of the binding sites on the other are occupied at equilibrium, for simple one-to-one binding. High values mean weaker binding, low ones tighter binding.
